Experimental data taken from US20180155451A1 (published 2018).

T1: FcγRIIa R (extracellular domain with a His tag at the C terminus) (human, UniProt P12318 34-217)
T1 construct: extracellular domain; expressed in FreeStyle293 cells; also called FcgRIIa R; FcγRIIa type R; not shown: His tag at the C terminus
T1 sequence (looked up): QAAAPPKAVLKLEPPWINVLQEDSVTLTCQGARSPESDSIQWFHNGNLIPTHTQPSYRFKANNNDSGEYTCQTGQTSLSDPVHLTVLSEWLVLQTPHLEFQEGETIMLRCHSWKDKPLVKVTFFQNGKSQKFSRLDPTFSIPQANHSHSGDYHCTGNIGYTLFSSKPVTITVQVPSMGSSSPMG


molecular target: T1, FcγRIIa R (extracellular domain with a …); experiment: SPR Biacore, relative binding

Ho/Con_2aR	Binder
122 % of GpH7-B3/GpL16-k0 (=100)	GpH7-B3 variant H268_01G/GpL16-k0 (antibody, human IgG1, kappa, homodimerized; mutation in both H chains; also called Ho Ab) heavy: not shown light: DIVMTQSPLSLPVTPGEPASISCQASESLVHSNRNTYLHWYLQKPGQSPQLLIYKVSNRFSGVPDRFSGSGSGTDFTLKISRVEAEDVGVYYCSQNTHVPPTFGQGTKVEIERTVAAPSVFIFPPSDEQLKSGTASVVCLLNNFYPREAKVQWKVDNALQSGNSQESVTEQDSKDSTYSLSSTLTLSKADYEKHKVYACEVTHQGLSSPVTKSFNRGEC
105 % of GpH7-B3/GpL16-k0 (=100)	GpH7-B3 variant I332_06M/GpL16-k0 (antibody, human IgG1, kappa, homodimerized; mutation in both H chains; also called Ho Ab) heavy: not shown light: DIVMTQSPLSLPVTPGEPASISCQASESLVHSNRNTYLHWYLQKPGQSPQLLIYKVSNRFSGVPDRFSGSGSGTDFTLKISRVEAEDVGVYYCSQNTHVPPTFGQGTKVEIERTVAAPSVFIFPPSDEQLKSGTASVVCLLNNFYPREAKVQWKVDNALQSGNSQESVTEQDSKDSTYSLSSTLTLSKADYEKHKVYACEVTHQGLSSPVTKSFNRGEC
131 % of GpH7-B3/GpL16-k0 (=100)	GpH7-B3 variant K326_08L/GpL16-k0 (antibody, human IgG1, kappa, homodimerized; mutation in both H chains; also called Ho Ab) heavy: not shown light: DIVMTQSPLSLPVTPGEPASISCQASESLVHSNRNTYLHWYLQKPGQSPQLLIYKVSNRFSGVPDRFSGSGSGTDFTLKISRVEAEDVGVYYCSQNTHVPPTFGQGTKVEIERTVAAPSVFIFPPSDEQLKSGTASVVCLLNNFYPREAKVQWKVDNALQSGNSQESVTEQDSKDSTYSLSSTLTLSKADYEKHKVYACEVTHQGLSSPVTKSFNRGEC
110 % of GpH7-B3/GpL16-k0 (=100)	GpH7-B3 variant K334_04F/GpL16-k0 (antibody, human IgG1, kappa, homodimerized; mutation in both H chains; also called Ho Ab) heavy: not shown light: DIVMTQSPLSLPVTPGEPASISCQASESLVHSNRNTYLHWYLQKPGQSPQLLIYKVSNRFSGVPDRFSGSGSGTDFTLKISRVEAEDVGVYYCSQNTHVPPTFGQGTKVEIERTVAAPSVFIFPPSDEQLKSGTASVVCLLNNFYPREAKVQWKVDNALQSGNSQESVTEQDSKDSTYSLSSTLTLSKADYEKHKVYACEVTHQGLSSPVTKSFNRGEC
114 % of GpH7-B3/GpL16-k0 (=100)	GpH7-B3 variant L235_20W/GpL16-k0 (antibody, human IgG1, kappa, homodimerized; mutation in both H chains; also called Ho Ab) heavy: not shown light: DIVMTQSPLSLPVTPGEPASISCQASESLVHSNRNTYLHWYLQKPGQSPQLLIYKVSNRFSGVPDRFSGSGSGTDFTLKISRVEAEDVGVYYCSQNTHVPPTFGQGTKVEIERTVAAPSVFIFPPSDEQLKSGTASVVCLLNNFYPREAKVQWKVDNALQSGNSQESVTEQDSKDSTYSLSSTLTLSKADYEKHKVYACEVTHQGLSSPVTKSFNRGEC
133 % of GpH7-B3/GpL16-k0 (=100)	GpH7-B3 variant K326_07I/GpL16-k0 (antibody, human IgG1, kappa, homodimerized; mutation in both H chains; also called Ho Ab) heavy: not shown light: DIVMTQSPLSLPVTPGEPASISCQASESLVHSNRNTYLHWYLQKPGQSPQLLIYKVSNRFSGVPDRFSGSGSGTDFTLKISRVEAEDVGVYYCSQNTHVPPTFGQGTKVEIERTVAAPSVFIFPPSDEQLKSGTASVVCLLNNFYPREAKVQWKVDNALQSGNSQESVTEQDSKDSTYSLSSTLTLSKADYEKHKVYACEVTHQGLSSPVTKSFNRGEC
108 % of GpH7-B3/GpL16-k0 (=100)	GpH7-B3 variant K334_19Q/GpL16-k0 (antibody, human IgG1, kappa, homodimerized; mutation in both H chains; also called Ho Ab) heavy: not shown light: DIVMTQSPLSLPVTPGEPASISCQASESLVHSNRNTYLHWYLQKPGQSPQLLIYKVSNRFSGVPDRFSGSGSGTDFTLKISRVEAEDVGVYYCSQNTHVPPTFGQGTKVEIERTVAAPSVFIFPPSDEQLKSGTASVVCLLNNFYPREAKVQWKVDNALQSGNSQESVTEQDSKDSTYSLSSTLTLSKADYEKHKVYACEVTHQGLSSPVTKSFNRGEC
107 % of GpH7-B3/GpL16-k0 (=100)	GpH7-B3 variant G237_20W/GpL16-k0 (antibody, human IgG1, kappa, homodimerized; mutation in both H chains; also called Ho Ab) heavy: not shown light: DIVMTQSPLSLPVTPGEPASISCQASESLVHSNRNTYLHWYLQKPGQSPQLLIYKVSNRFSGVPDRFSGSGSGTDFTLKISRVEAEDVGVYYCSQNTHVPPTFGQGTKVEIERTVAAPSVFIFPPSDEQLKSGTASVVCLLNNFYPREAKVQWKVDNALQSGNSQESVTEQDSKDSTYSLSSTLTLSKADYEKHKVYACEVTHQGLSSPVTKSFNRGEC
106 % of GpH7-B3/GpL16-k0 (=100)	GpH7-B3 variant K334_10E/GpL16-k0 (antibody, human IgG1, kappa, homodimerized; mutation in both H chains; also called Ho Ab) heavy: not shown light: DIVMTQSPLSLPVTPGEPASISCQASESLVHSNRNTYLHWYLQKPGQSPQLLIYKVSNRFSGVPDRFSGSGSGTDFTLKISRVEAEDVGVYYCSQNTHVPPTFGQGTKVEIERTVAAPSVFIFPPSDEQLKSGTASVVCLLNNFYPREAKVQWKVDNALQSGNSQESVTEQDSKDSTYSLSSTLTLSKADYEKHKVYACEVTHQGLSSPVTKSFNRGEC
134 % of GpH7-B3/GpL16-k0 (=100)	GpH7-B3 variant K326_15Y/GpL16-k0 (antibody, human IgG1, kappa, homodimerized; mutation in both H chains; also called Ho Ab) heavy: not shown light: DIVMTQSPLSLPVTPGEPASISCQASESLVHSNRNTYLHWYLQKPGQSPQLLIYKVSNRFSGVPDRFSGSGSGTDFTLKISRVEAEDVGVYYCSQNTHVPPTFGQGTKVEIERTVAAPSVFIFPPSDEQLKSGTASVVCLLNNFYPREAKVQWKVDNALQSGNSQESVTEQDSKDSTYSLSSTLTLSKADYEKHKVYACEVTHQGLSSPVTKSFNRGEC
102 % of GpH7-B3/GpL16-k0 (=100)	GpH7-B3 variant K334_05P/GpL16-k0 (antibody, human IgG1, kappa, homodimerized; mutation in both H chains; also called Ho Ab) heavy: not shown light: DIVMTQSPLSLPVTPGEPASISCQASESLVHSNRNTYLHWYLQKPGQSPQLLIYKVSNRFSGVPDRFSGSGSGTDFTLKISRVEAEDVGVYYCSQNTHVPPTFGQGTKVEIERTVAAPSVFIFPPSDEQLKSGTASVVCLLNNFYPREAKVQWKVDNALQSGNSQESVTEQDSKDSTYSLSSTLTLSKADYEKHKVYACEVTHQGLSSPVTKSFNRGEC
